Test results taken from patent publication US20220047684A1, “ENZYMES AND METHODS FOR PREVENTING AND TREATING […] IN ANIMALS” (Ecto Development Corporation, priority 2020, published 2022).

How the values were obtained:
Assay type in all cases: biochemical
[1] = Cypermethrin degradation, HPLC; settings: 50 ppm cypermethrin in 1 mL PBS with 10 μL pPytH2; 15 minutes at 37 C, 300 rpm
Experimental: 50 ppm of cypermethrin was placed in 1 mL PBS with 10 μL pPytH2, PytH2 and reacted for 15 minutes at 37 C with shaking at 300 rpm. HPLC was run on the sample after being diluted 1:1 MeOH using instrument method described above for permethrin for 10 minutes.

[2] = Deltamethrin degradation, HPLC; settings: method as for permethrin; FIG. 5
Description: Using the method and instruments described above for permethrin, 40% of deltamethrin was degraded by pPytH2, PytH2 esterase as shown in FIG. 5.

[3] = Fenpropathrin degradation, HPLC; settings: 20 ppm fenpropathrin; 15 minutes at 37 C with shaking
Experimental: 1000 ppm fenpropathrin was diluted to 5 point curve which was able to detect on HPLC the gradient of 20% water and 80% using the instrument method described above for permethrin. 20 ppm of […] was placed in […] with 10 μL […] and reacted for 15 minutes at 37 C with shaking. HPLC was run on the sample after being diluted 1:1 MeOH using instrument method described above for permethrin. A 90% degradation of fenpropathrin was detected with PytH2.

[4] = Serum analysis: cat serum plus permethrin +/- E3, HPLC; settings: for % permethrin control: relative to no enzyme
Experimental: The next step was to test the enzymatic hydrolysis of permethrin in feline blood (cat serum). Cat serum was acquired, permethrin was added to the serum and was assayed as a control by HPLC. After the cat serum control was analyzed three different concentrations of the enzyme were introduced to the cat serum control and then analyzed by HPLC.
Cat serum was acquired, permethrin was added to the serum and was assayed as a control by HPLC. After the cat serum control was analyzed three different concentrations of the enzyme were introduced to the cat serum control and then analyzed by HPLC.

B1: E3: carboxylesterase PytH2 (pytH) from Sphingobium wenxiniae, amino acid SEQ. ID No. 3, DNA SEQ. ID No. 6; recombinant, His-tagged (protein, listed as Sphingobium wenxiniae)
chain: MTVTDIILIHGALNRGACYDAVVPLLEARGYRVHAPDLTGHTPGDGGHLSVVDMEHYTRPVADILARAEGQSILLGHSLGGASISWLAQHHYDKVAGLIYLTAVLTAPGITPETFVLPGEPNRGTPHALDLIQPVDEGRGLQADFSRLERLREVFMGDYPGEGMPPAEQFIQTQSTVPFGTPNPMEGRALEIPRLYEALDDVVIPIAVQRQMQKEFPGPVAVVSLPASHAPYYSMPERLAEAIADFADAPAEYRQTATKAGPDRPAGADGGRADRADLP
modifications: His tag
notes: ID No. 6; recombinant, His-tagged
Question: With B1 as the molecule, how does the Cypermethrin degradation rate [1] read?
Answer: Its Cypermethrin degradation rate is 12.69 nmol/min/μg pPytH2.

Question: What about the deltamethrin degraded [2] of the same molecule?
Answer: Its deltamethrin degraded is 40%.

Question: And the degradation of fenpropathrin [3]?
Answer: The degradation of fenpropathrin was 90%.

Question: What about the “Cis-permethrin (HPLC area)” value ([4]; 2.5 μL E3, 15 min 37 degree C.) of the same molecule?
Answer: Its value is 1624.5.

Question: And the “Total permethrin (area)” value ([4]; 2.5 μL E3, 15 min 37 degree C.)?
Answer: The value was 1624.5 area.

Question: What about the “Total permethrin (expected 2 ppm)” value ([4]; 2.5 μL E3, 15 min 37 degree C.) of the same molecule?
Answer: Its value is 0.098 ppm.

Question: What about the “Trans-permethrin (HPLC area)” value ([4]; 2.5 μL E3, 15 min 37 degree C.) of the same molecule?
Answer: The value was 0.

Question: What about the “% permethrin control” value ([4]; 2.5 μL E3, 15 min 37 degree C.) of the same molecule?
Answer: Its value is 7.0%.

Question: And the “Cis-permethrin (HPLC area)” value ([4]; 10 μL E3, 15 min 37 degree C.)?
Answer: Its value is 0.

Question: What about the “Total permethrin (area)” value ([4]; 10 μL E3, 15 min 37 degree C.) of the same molecule?
Answer: The value was 0 area.

Question: And the “Total permethrin (expected 2 ppm)” value ([4]; 10 μL E3, 15 min 37 degree C.)?
Answer: Its value is 0.000 ppm.

Question: What about the “Trans-permethrin (HPLC area)” value ([4]; 10 μL E3, 15 min 37 degree C.) of the same molecule?
Answer: The value was 0.

Question: And the “% permethrin control” value ([4]; 10 μL E3, 15 min 37 degree C.)?
Answer: The value was 0.0%.

Question: And the “% permethrin control” value ([4]; 10 μL E3, 15 min 37 degree C., listed as PytH2)?
Answer: The value was 0.0%.

Question: What about the “Cis-permethrin (HPLC area)” value ([4]; 30 μL E3, 15 min 37 degree C.) of the same molecule?
Answer: The value was 0.

Question: And the “Total permethrin (area)” value ([4]; 30 μL E3, 15 min 37 degree C.)?
Answer: The value was 0 area.

Question: And the “Total permethrin (expected 2 ppm)” value ([4]; 30 μL E3, 15 min 37 degree C.)?
Answer: The value was 0.000 ppm.

Question: What about the “Trans-permethrin (HPLC area)” value ([4]; 30 μL E3, 15 min 37 degree C.) of the same molecule?
Answer: The value was 0.

Question: And the “% permethrin control” value ([4]; 30 μL E3, 15 min 37 degree C.)?
Answer: The value was 0.0%.
